{"source": "FireProtDB", "proteins": {"B1": {"name": "Beta-lactoglobulin wild type, P02754 (protein)", "chain": "MKCLLLALALTCGAQALIVTQTMKGLDIQKVAGTWYSLAMAASDISLLDAQSAPLRVYVEELKPTPEGDLEILLQKWENGECAQKKIIAEKTKIPAVFKIDALNENKVLVLDTDYKKYLLFCMENSAEPEQSLACQCLVRTPEVDDEALEKFDKALKALPMHIRLSFNPTQLEEQCHI"}, "B2": {"name": "Cytidine deaminase wild type, Q9R2S1 (protein)", "chain": "MEIEQLIVEAKKARELAYVPYSKFPVGAALLTKGGSVYRGCNIENAAYSVCNCAERTALFKAYSEGEKEFTALAVIADTPRPVPPCGACRQVIAELCHGDMKVILANLKGDVKVMTVSELLPEAFSAEDLHA"}, "B3": {"name": "Beta-glucanase wild type, P07980 (protein)", "chain": "MKRVLLILVTGLFMSLCGITSSVSAQTGGSFFEPFNSYNSGLWQKADGYSNGDMFNCTWRANNVSMTSLGEMRLALTSPSYNKFDCGENRSVQTYGYGLYEVRMKPAKNTGIVSSFFTYTGPTEGTPWDEIDIEFLGKDTTKVQFNYYTNGAGNHEKFADLGFDAANAYHTYAFDWQPNSIKWYVDGQLKHTATTQIPAAPGKIMMNLWNGTGVDDWLGSYNGVNPIYAHYDWMRYRKK"}, "B4": {"name": "Acyl-CoA-binding protein wild type, P07107 (protein)", "chain": "MSQAEFDKAAEEVKHLKTKPADEEMLFIYSHYKQATVGDINTERPGMLDFKGKAKWDAWNELKGTSKEDAMKAYIDKVEELKKKYGI"}, "B5": {"name": "3-isopropylmalate dehydrogenase wild type, P05645 (protein)", "chain": "MKKRIALLPGDGIGPEVLESATDVLKSVAERFNHEFEFEYGLIGGAAIDEHHNPLPEETVAACKNADAILLGAVGGPKWDQNPSELRPEKGLLSIRKQLDLFANLRPVKVFESLSDASPLKKEYIDNVDFVIVRELTGGLYFGQPSKRYVNTEGEQEAVDTLFYKRTEIERVIREGFKMAAARKGKVTSVDKANVLESSRLWREVAEDVAQEFPDVKLEHMLVDNAAMQLIYAPNQFDVVVTENMFGDILSDEASMLTGSLGMLPSASLSSSGLHLFEPVHGSAPDIAGKGMANPFAAILSAAMLLRTSFGLEEEAKAVEDAVNKVLASGKRTRDLARSEEFSSTQAITEEVKAAIMSENTISNV"}, "B6": {"name": "Subtilisin BPN' wild type, P00782 (protein)", "chain": "MRGKKVWISLLFALALIFTMAFGSTSSAQAAGKSNGEKKYIVGFKQTMSTMSAAKKKDVISEKGGKVQKQFKYVDAASATLNEKAVKELKKDPSVAYVEEDHVAHAYAQSVPYGVSQIKAPALHSQGYTGSNVKVAVIDSGIDSSHPDLKVAGGASMVPSETNPFQDNNSHGTHVAGTVAALNNSIGVLGVAPSASLYAVKVLGADGSGQYSWIINGIEWAIANNMDVINMSLGGPSGSAALKAAVDKAVASGVVVVAAAGNEGTSGSSSTVGYPGKYPSVIAVGAVDSSNQRASFSSVGPELDVMAPGVSIQSTLPGNKYGAYNGTSMASPHVAGAAALILSKHPNWTNTQVRSSLENTTTKLGDSFYYGKGLINVQAAAQ"}, "B7": {"name": "Cold shock protein CspB wild type, P41016 (protein)", "chain": "MQRGKVKWFNNEKGYGFIEVEGGSDVFVHFTAIQGEGFKTLEEGQEVSFEIVQGNRGPQAANVVKL"}}, "settings": "whole UniProt chain shown", "key": {"[1]": {"settings": "Bos taurus, pH 2, Thermal, CD, KCl-HCl 0.1 M, reversible: yes"}, "[2]": {"settings": "Bos taurus, pH 2, Thermal, CD, Sodium phosphate 0.2 M, reversible: yes"}, "[3]": {"settings": "Bos taurus, pH 2, Thermal, DSC, KCl-HCl 0.1 M, reversible: yes"}, "[4]": {"settings": "Bos taurus, pH 6.2, 25 °C, 2-Propanol, CD, Piperazine Unknown, NaCl 30 mM, transition: 2, reversible: Yes"}, "[5]": {"settings": "Bacillus amyloliquefaciens, pH 6, 25 °C, GdnHCl, Fluorescence, MES 50 mM, CaCl2 5 mM, reversible: no"}, "[6]": {"settings": "Bos taurus, pH 5.3, 5 °C, GdnHCl, CD, Sodium acetate 0.02 M, reversible: yes"}, "[7]": {"settings": "Bacillus amyloliquefaciens, pH 7.5, Thermal, fluorescence, Pipes 10 mM, transition: 2"}, "[8]": {"settings": "Bacillus caldolyticus, pH 7, Thermal, CD, sodium cacodylate 100 mM, NaCl 2 M, reversible: yes"}, "[9]": {"settings": "Bacillus caldolyticus, pH 7, Thermal, CD, sodium cacodylate 100 mM, reversible: yes"}}, "note": "Several values for one entry are separate records, joined by “and”; a condition that tells them apart may be missing. Identical values can stand only once.", "data": [{"protein": "B1", "values": [{"measurement": "Tm", "setting": "[1]", "result": 78, "unit": "°C"}, {"measurement": "heat capacity change of unfolding", "setting": "[1]", "result": 1.33, "unit": "kcal/mol/K"}, {"measurement": "unfolding enthalpy (van 't Hoff)", "setting": "[1]", "result": 74.6, "unit": "kcal/mol"}, {"measurement": "Tm", "setting": "[2]", "result": 91, "unit": "°C"}, {"measurement": "heat capacity change of unfolding", "setting": "[2]", "result": 1.35, "unit": "kcal/mol/K"}, {"measurement": "unfolding enthalpy (van 't Hoff)", "setting": "[2]", "result": 88.8, "unit": "kcal/mol"}, {"measurement": "Tm", "setting": "[3]", "result": 77.8, "unit": "°C"}, {"measurement": "heat capacity change of unfolding", "setting": "[3]", "result": 1.33, "unit": "kcal/mol/K"}, {"measurement": "unfolding enthalpy (calorimetric)", "setting": "[3]", "result": 74.7, "unit": "kcal/mol"}, {"measurement": "Tm", "setting": "Bos taurus, pH 3, Thermal, DSC, phosphate 20 mM, reversible: yes", "result": 77, "unit": "°C"}, {"measurement": "denaturant m value", "setting": "[4]", "result": 0.9, "unit": "kcal/mol/M"}, {"measurement": "denaturant midpoint (higher = more stable)", "setting": "[4]", "result": 4, "unit": "M"}, {"measurement": "unfolding free energy", "setting": "[4]", "result": 3.8, "unit": "kcal/mol"}, {"measurement": "unfolding free energy", "setting": "Bos taurus, pH 6.85, 25 °C, Urea, CD, Phosphate 0.01 M, chloride 0.2 M", "result": 6.99, "unit": "kcal/mol"}, {"measurement": "unfolding free energy", "setting": "Bos taurus, pH 6.85, 25 °C, Urea, CD, Phosphate 0.01 M, citrate 0.2 M", "result": 9.79, "unit": "kcal/mol"}, {"measurement": "unfolding free energy", "setting": "Bos taurus, pH 6.85, 25 °C, Urea, CD, Phosphate 0.01 M, phosphate 0.2 M", "result": 9.18, "unit": "kcal/mol"}, {"measurement": "unfolding free energy", "setting": "Bos taurus, pH 6.85, 25 °C, Urea, CD, Phosphate 0.01 M, sulfate 0.2 M", "result": 8.8, "unit": "kcal/mol"}, {"measurement": "unfolding free energy", "setting": "Bos taurus, pH 6.85, 25 °C, Urea, CD, Phosphate 0.01 M, tartrate 0.2 M", "result": 7.58, "unit": "kcal/mol"}, {"measurement": "unfolding free energy", "setting": "Bos taurus, pH 7.1, 30 °C, GdnHCl, CD, phosphate 0.11 M, NaCl 0.04 M", "result": 11.2, "unit": "kcal/mol"}]}, {"protein": "B2", "values": [{"measurement": "unfolding free energy", "setting": "Bacillus caldolyticus, pH 7, 25 °C, GdnHCl, CD, potassium phosphate 20 mM, reversible: no", "result": 4.3, "unit": "kcal/mol"}]}, {"protein": "B3", "values": [{"measurement": "denaturant midpoint (higher = more stable)", "setting": "[5]", "result": "2.73 M and 2.84 M"}, {"measurement": "unfolding free energy", "setting": "[5]", "result": "12.9 kcal/mol and 4.97 kcal/mol"}]}, {"protein": "B4", "values": [{"measurement": "denaturant m value", "setting": "[6]", "result": 2.7, "unit": "kcal/mol/M"}, {"measurement": "denaturant midpoint (higher = more stable)", "setting": "[6]", "result": 2.36, "unit": "M"}, {"measurement": "unfolding free energy", "setting": "[6]", "result": 6.1, "unit": "kcal/mol"}]}, {"protein": "B5", "values": [{"measurement": "Tm", "setting": "Bacillus subtilis (strain 168), pH 7.6, Thermal, CD, Potassium phosphate 20 mM, reversible: yes", "result": 56, "unit": "°C"}]}, {"protein": "B6", "values": [{"measurement": "unfolding free energy", "setting": "Bacillus amyloliquefaciens, pH 5, 20 °C, Thermal, DSC, Sodium acetate 100 mM, reversible: yes", "result": 2.1, "unit": "kcal/mol"}, {"measurement": "Tm", "setting": "Bacillus amyloliquefaciens, pH 7, Thermal, CD, KPO4 100 mM", "result": 65, "unit": "°C"}, {"measurement": "Tm", "setting": "[7]", "result": "53.9 °C and 56.8 °C"}, {"measurement": "unfolding enthalpy (calorimetric)", "setting": "[7]", "result": "55.8 kcal/mol and 56.7 kcal/mol"}, {"measurement": "Tm", "setting": "Bacillus amyloliquefaciens, pH 8, Thermal, DSC, Tris-HCl 50 mM, CaCl2 10 mM, reversible: no", "result": 78.3, "unit": "°C"}, {"measurement": "Tm", "setting": "Bacillus amyloliquefaciens, pH 8, Thermal, DSC, Tris-HCl 50 mM, KCl 50 mM", "result": 58.9, "unit": "°C"}]}, {"protein": "B7", "values": [{"measurement": "unfolding free energy", "setting": "Bacillus caldolyticus, pH 7, 60 °C, Thermal, CD, sodium cacodylate 100 mM, NaCl 2 M, reversible: yes", "result": 3.37, "unit": "kcal/mol"}, {"measurement": "unfolding free energy", "setting": "Bacillus caldolyticus, pH 7, 60 °C, Thermal, CD, sodium cacodylate 100 mM, reversible: yes", "result": 2.44, "unit": "kcal/mol"}, {"measurement": "Tm", "setting": "[8]", "result": 84.4, "unit": "°C"}, {"measurement": "unfolding enthalpy (van 't Hoff)", "setting": "[8]", "result": 61.4, "unit": "kcal/mol"}, {"measurement": "Tm", "setting": "[9]", "result": 76.9, "unit": "°C"}, {"measurement": "unfolding enthalpy (van 't Hoff)", "setting": "[9]", "result": 58.6, "unit": "kcal/mol"}]}]}
